Source: IntAct's records for PubMed 19074269

B1: Basic leucine zipper transcriptional factor ATF-like 2 (Homo sapiens), Q8N1L9-1 (parent)
chain: MHLCGGNGLLTQTDPKEQQRQLKKQKNRAAAQRSRQKHTDKADALHQQHESLEKDNLALRKEIQSLQAELAWWSRTLHVHERLCPMDCASCSAPGLLGCWDQAEGLLGPGPQGQHGCREQLELFQTPGSCYPAQPLSPGPQPHDSPSLLQCPLPSLSLGPAVVAEPPVQLSPSPLLFASHTGSSLQGSSSKLSALQPSLTAQTAPPQPLELEHPTRGKLGSSPDNPSSALGLARLQSREHKPALSAATWQGLVVDPSPHPLLAFPLLSSAQVHF

Variants of: B1
Settings: with jun_human JUN

Variant	effect of a mutation on the interaction
MHLCGGNGLLTQTDPKEQQRQLKKQKNRAAAQRSRQKHTDKADALHQQHESLEKDNLAPRKEIQSLQAELAWWSRTLHVHERLCPMDCASCSAPGLLGCWDQAEGLLGPGPQGQHGCREQLELFQTPGSCYPAQPLSPGPQPHDSPSLLQCPLPSLSLGPAVVAEPPVQLSPSPLLFASHTGSSLQGSSSKLSALQPSLTAQTAPPQPLELEHPTRGKLGSSPDNPSSALGLARLQSREHKPALSAATWQGLVVDPSPHPLLAFPLLSSAQVHF [L59P]	disrupting interaction
